What was measured:
Details in all cases: both partners purified
Mnl1 mCTD–FLAG = target: T1, Mnl1 mCTD–FLAG (S. cerevisiae, UniProt P38888 21-796, L655N | F770Y | M772K); test: cross-linking; competition: RBΔS, RBun or RBsc incubated with Mnl1–Pdi1 complex at the indicated molar ratios (tenfold excess in Fig. 6) in 25 mM HEPES pH 7.4, 150 mM NaCl, 0.1% Nonidet P-40, 2 mM CaCl2, 30 °C 30 min; then DPS 30 °C 30 min, N-ethylmaleimide; SDS-PAGE, Coomassie blue
T1 construct: Mnl1 (Htm1) of S. cerevisiae with three hydrophobic residues of the CTD groove changed to hydrophilic ones; source: S. cerevisiae, overexpressed together with Pdi1, purified as a complex (anti-FLAG M2 resin, Superdex 200); not shown: FLAG, C-terminal, kept
T1 sequence (looked up): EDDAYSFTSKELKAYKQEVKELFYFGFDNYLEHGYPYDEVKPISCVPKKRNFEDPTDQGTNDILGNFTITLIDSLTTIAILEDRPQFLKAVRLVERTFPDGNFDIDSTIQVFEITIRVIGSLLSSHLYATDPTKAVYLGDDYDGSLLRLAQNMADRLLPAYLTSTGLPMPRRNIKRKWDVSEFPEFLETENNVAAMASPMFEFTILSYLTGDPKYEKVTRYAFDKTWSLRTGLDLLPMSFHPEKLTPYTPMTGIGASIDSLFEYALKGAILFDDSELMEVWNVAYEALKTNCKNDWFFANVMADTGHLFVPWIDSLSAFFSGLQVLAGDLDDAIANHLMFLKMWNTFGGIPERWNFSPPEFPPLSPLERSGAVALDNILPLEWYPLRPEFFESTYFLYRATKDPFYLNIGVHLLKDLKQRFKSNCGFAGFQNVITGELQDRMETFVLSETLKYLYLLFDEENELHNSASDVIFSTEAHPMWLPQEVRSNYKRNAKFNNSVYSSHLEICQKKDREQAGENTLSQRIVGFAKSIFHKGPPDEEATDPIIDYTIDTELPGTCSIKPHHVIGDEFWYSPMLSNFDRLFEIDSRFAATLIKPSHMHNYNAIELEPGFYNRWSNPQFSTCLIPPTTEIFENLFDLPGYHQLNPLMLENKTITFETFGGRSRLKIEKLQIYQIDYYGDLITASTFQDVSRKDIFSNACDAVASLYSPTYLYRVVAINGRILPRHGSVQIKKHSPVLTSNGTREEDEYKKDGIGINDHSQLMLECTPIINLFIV

Mnl1 (C579S)–FLAG = target: T2, Mnl1 (C579S)–FLAG (S. cerevisiae, UniProt P38888 21-796, C579S); test: cross-linking; purified complexes of Pdi1 with wild-type or mutant Mnl1 incubated with increasing concentrations of DPS (2,2′-dipyridyldisulfide) to induce disulfides; non-reducing SDS-PAGE, Coomassie blue
T2 construct: Mnl1 (Htm1) of S. cerevisiae with a substituted loop cysteine; source: S. cerevisiae, overexpressed together with Pdi1, purified as a complex (anti-FLAG M2 resin, Superdex 200); not shown: FLAG, C-terminal, kept
T2 sequence (looked up): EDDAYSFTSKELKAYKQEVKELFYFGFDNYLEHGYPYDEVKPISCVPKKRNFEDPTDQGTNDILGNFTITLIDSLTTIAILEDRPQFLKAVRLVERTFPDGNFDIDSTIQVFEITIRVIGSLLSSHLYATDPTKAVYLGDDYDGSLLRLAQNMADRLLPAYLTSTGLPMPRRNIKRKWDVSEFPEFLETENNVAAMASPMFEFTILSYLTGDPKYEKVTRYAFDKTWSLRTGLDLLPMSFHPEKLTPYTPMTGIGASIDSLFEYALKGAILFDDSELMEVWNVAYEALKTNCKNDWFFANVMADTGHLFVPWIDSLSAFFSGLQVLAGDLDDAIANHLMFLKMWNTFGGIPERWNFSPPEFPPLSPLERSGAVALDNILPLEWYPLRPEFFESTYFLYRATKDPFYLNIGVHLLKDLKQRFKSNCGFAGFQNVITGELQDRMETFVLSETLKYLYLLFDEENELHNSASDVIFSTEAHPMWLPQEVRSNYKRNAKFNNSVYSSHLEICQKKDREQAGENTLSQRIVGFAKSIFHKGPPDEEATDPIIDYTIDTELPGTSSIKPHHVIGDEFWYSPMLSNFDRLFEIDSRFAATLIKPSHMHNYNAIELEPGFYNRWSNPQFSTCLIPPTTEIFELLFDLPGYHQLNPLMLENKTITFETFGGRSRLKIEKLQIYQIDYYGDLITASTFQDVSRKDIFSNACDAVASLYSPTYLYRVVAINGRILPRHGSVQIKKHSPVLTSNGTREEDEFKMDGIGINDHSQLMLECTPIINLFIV

Mnl1 (C644S)–FLAG = target: T3, Mnl1 (C644S)–FLAG (S. cerevisiae, UniProt P38888 21-796, C644S); test: as above
T3 construct: Mnl1 (Htm1) of S. cerevisiae with a substituted loop cysteine; source: S. cerevisiae, overexpressed together with Pdi1, purified as a complex (anti-FLAG M2 resin, Superdex 200); not shown: FLAG, C-terminal, kept
T3 sequence (looked up): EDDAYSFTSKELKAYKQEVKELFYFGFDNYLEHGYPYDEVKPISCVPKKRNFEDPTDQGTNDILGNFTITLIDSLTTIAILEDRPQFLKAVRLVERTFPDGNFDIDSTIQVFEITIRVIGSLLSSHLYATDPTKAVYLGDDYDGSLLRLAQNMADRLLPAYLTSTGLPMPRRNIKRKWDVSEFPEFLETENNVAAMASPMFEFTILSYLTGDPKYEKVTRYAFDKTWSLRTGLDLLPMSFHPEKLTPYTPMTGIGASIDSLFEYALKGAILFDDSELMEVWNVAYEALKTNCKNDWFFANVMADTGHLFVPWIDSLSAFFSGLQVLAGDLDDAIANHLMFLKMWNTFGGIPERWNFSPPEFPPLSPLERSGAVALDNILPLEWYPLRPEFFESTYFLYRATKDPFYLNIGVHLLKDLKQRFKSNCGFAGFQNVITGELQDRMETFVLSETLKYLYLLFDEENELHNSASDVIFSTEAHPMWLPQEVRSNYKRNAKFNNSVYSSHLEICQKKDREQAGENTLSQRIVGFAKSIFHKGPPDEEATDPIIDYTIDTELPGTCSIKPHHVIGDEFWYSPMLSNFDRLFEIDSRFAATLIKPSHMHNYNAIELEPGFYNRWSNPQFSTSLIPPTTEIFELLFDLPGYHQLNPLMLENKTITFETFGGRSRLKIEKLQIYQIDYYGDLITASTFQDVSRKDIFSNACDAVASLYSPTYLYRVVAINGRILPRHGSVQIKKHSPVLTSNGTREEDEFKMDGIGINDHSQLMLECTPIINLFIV

Measured: binding result

B1: Pdi1 (protein disulfide isomerase) (enzyme, S. cerevisiae, UniProt P17967 29-522, looked up)
chain: PEDSAVVKLATDSFNEYIQSHDLVLAEFFAPWCGHCKNMAPEYVKAAETLVEKNITLAQIDCTENQDLCMEHNIPGFPSLKIFKNSDVNNSIDYEGPRTAEAIVQFMIKQSQPAVAVVADLPAYLANETFVTPVIVQSGKIDADFNATFYSMANKHFNDYDFVSAENADDDFKLSIYLPSAMDEPVVYNGKKADIADADVFEKWLQVEALPYFGEIDGSVFAQYVESGLPLGYLFYNDEEELEEYKPLFTELAKKNRGLMNFVSIDARKFGRHAGNLNMKEQFPLFAIHDMTEDLKYGLPQLSEEAFDELSDKIVLESKAIESLVKDFLKGDASPIVKSQEIFENQDSSVFQLVGKNHDEIVNDPKKDVLVLYYAPWCGHCKRLAPTYQELADTYANATSDVLIAKLDHTENDVRGVVIEGYPTIVLYPGGKKSESVVYQGSRSLDSLFDFIKENGHFDVDGKALYEEAQEKAAEEADADAELADEEDAIHDEL
notes: Pdi1, protein disulfide isomerase of S. cerevisiae, untagged; Trx domains a, b, b′ and a′; amino acids 24–500 could be modelled; source: S. cerevisiae, overexpressed together with Mnl1–FLAG (GAL1 promoter), purified as a complex
binds: Mnl1 mCTD–FLAG | Mnl1 (C579S)–FLAG | Mnl1 (C644S)–FLAG

Reference: article PMC12170172, “Initiation of ERAD by the bifunctional complex of Mnl1/Htm1 mannosidase and protein disulfide isomerase” (Nature Structural & Molecular Biology, 2025)
